Read-outs that look alike come from different tables or passages of the source.
B1: 4-1BB (20H4.9)/FAP (4B9) P329GLALA IgG1 2+1 (hole-VH) (bispecific antibody)
heavy 1: QVQLQQWGAGLLKPSETLSLTCAVYGGSFSGYYWSWIRQSPEKGLEWIGEINHGGYVTYNPSLESRVTISVDTSKNQFSLKLSSVTAADTAVYYCARDYGPGNYDWYFDLWGRGTLVTVSSASTKGPSVFPLAPSSKSTSGGTAALGCLVKDYFPEPVTVSWNSGALTSGVHTFPAVLQSSGLYSLSSVVTVPSSSLGTQTYICNVNHKPSNTKVDKKVEPKSCDKTHTCPPCPAPEAAGGPSVFLFPPKPKDTLMISRTPEVTCVVVDVSHEDPEVKFNWYVDGVEVHNAKTKPREEQYNSTYRVVSVLTVLHQDWLNGKEYKCKVSNKALGAPIEKTISKAKGQPREPQVCTLPPSRDELTKNQVSLSCAVKGFYPSDIAVEWESNGQPENNYKTTPPVLDSDGSFFLVSKLTVDKSRWQQGNVFSCSVMHEALHNHYTQKSLSLSPGGGGGSGGGGSGGGGSGGGGSEVQLLESGGGLVQPGGSLRLSCAASGFTFSSYAMSWVRQAPGKGLEWVSAIIGSGASTYYADSVKGRFTISRDNSKNTLYLQMNSLRAEDTAVYYCAKGWFGGFNYWGQGTLVTVSS
heavy 2: not shown
light: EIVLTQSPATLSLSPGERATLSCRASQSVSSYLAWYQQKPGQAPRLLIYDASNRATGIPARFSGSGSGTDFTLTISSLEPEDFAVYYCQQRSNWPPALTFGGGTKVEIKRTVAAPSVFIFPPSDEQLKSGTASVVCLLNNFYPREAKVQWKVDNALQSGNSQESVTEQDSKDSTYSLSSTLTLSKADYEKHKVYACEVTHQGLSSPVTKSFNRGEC
notes: also called 4-1BB (20H4.9)×FAP (4B9) 2+1; 20H4.9/4B9 2+1
B2: 4-1BB (20H4.9)/FAP (4B9) P329GLALA IgG1 4+1 (hole-VH) (bispecific antibody)
heavy 1: QVQLQQWGAGLLKPSETLSLTCAVYGGSFSGYYWSWIRQSPEKGLEWIGEINHGGYVTYNPSLESRVTISVDTSKNQFSLKLSSVTAADTAVYYCARDYGPGNYDWYFDLWGRGTLVTVSSASTKGPSVFPLAPSSKSTSGGTAALGCLVKDYFPEPVTVSWNSGALTSGVHTFPAVLQSSGLYSLSSVVTVPSSSLGTQTYICNVNHKPSNTKVDKKVEPKSCDGGGGSGGGGSQVQLQQWGAGLLKPSETLSLTCAVYGGSFSGYYWSWIRQSPEKGLEWIGEINHGGYVTYNPSLESRVTISVDTSKNQFSLKLSSVTAADTAVYYCARDYGPGNYDWYFDLWGRGTLVTVSSASTKGPSVFPLAPSSKSTSGGTAALGCLVKDYFPEPVTVSWNSGALTSGVHTFPAVLQSSGLYSLSSVVTVPSSSLGTQTYICNVNHKPSNTKVDKKVEPKSCDKTHTCPPCPAPEAAGGPSVFLFPPKPKDTLMISRTPEVTCVVVDVSHEDPEVKFNWYVDGVEVHNAKTKPREEQYNSTYRVVSVLTVLHQDWLNGKEYKCKVSNKALGAPIEKTISKAKGQPREPQVCTLPPSRDELTKNQVSLSCAVKGFYPSDIAVEWESNGQPENNYKTTPPVLDSDGSFFLVSKLTVDKSRWQQGNVFSCSVMHEALHNHYTQKSLSLSPGGGGGSGGGGSGGGGSGGGGSEVQLLESGGGLVQPGGSLRLSCAASGFTFSSYAMSWVRQAPGKGLEWVSAIIGSGASTYYADSVKGRFTISRDNSKNTLYLQMNSLRAEDTAVYYCAKGWFGGFNYWGQGTLVTVSS
heavy 2: not shown
light: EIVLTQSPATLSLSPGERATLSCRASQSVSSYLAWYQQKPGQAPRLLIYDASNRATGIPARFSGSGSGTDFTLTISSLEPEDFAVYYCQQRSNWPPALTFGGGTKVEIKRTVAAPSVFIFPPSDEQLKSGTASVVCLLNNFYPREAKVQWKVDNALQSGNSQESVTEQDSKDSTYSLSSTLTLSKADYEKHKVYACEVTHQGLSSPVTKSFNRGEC
notes: also called 4-1BB (20H4.9)×FAP (4B9) 4+1; 20H4.9/4B9 4+1
B3: 2+1 4-1BB (20H4.9)/CEA(A5B7P) human IgG1 PGLALA, CEA with CHCL crossfab (bispecific antibody)
heavy 1: not shown
heavy 2: QVQLQQWGAGLLKPSETLSLTCAVYGGSFSGYYWSWIRQSPEKGLEWIGEINHGGYVTYNPSLESRVTISVDTSKNQFSLKLSSVTAADTAVYYCARDYGPGNYDWYFDLWGRGTLVTVSSASTKGPSVFPLAPSSKSTSGGTAALGCLVEDYFPEPVTVSWNSGALTSGVHTFPAVLQSSGLYSLSSVVTVPSSSLGTQTYICNVNHKPSNTKVDEKVEPKSCDKTHTCPPCPAPEAAGGPSVFLFPPKPKDTLMISRTPEVTCVVVDVSHEDPEVKFNWYVDGVEVHNAKTKPREEQYNSTYRVVSVLTVLHQDWLNGKEYKCKVSNKALGAPIEKTISKAKGQPREPQVCTLPPSRDELTKNQVSLSCAVKGFYPSDIAVEWESNGQPENNYKTTPPVLDSDGSFFLVSKLTVDKSRWQQGNVFSCSVMHEALHNHYTQKSLSLSPGK
light 1: not shown
light 2: QTVLSQSPAILSASPGEKVTMTCRASSSVTYIHWYQQKPGSSPKSWIYATSNLASGVPARFSGSGSGTSYSLTISRVEAEDAATYYCQHWSSKPPTFGGGTKLEIKSSASTKGPSVFPLAPSSKSTSGGTAALGCLVKDYFPEPVTVSWNSGALTSGVHTFPAVLQSSGLYSLSSVVTVPSSSLGTQTYICNVNHKPSNTKVDKKVEPKSC
notes: also called 4-1BB (20H4.9)×CEA (A5B7P) 2+1 CHCL crossfab; knob-CHCL crossfab
B4: 2+1 4-1BB (20H4.9)/CEA(A5B7P) human IgG1 PGLALA, (G4S)4, hole-VH (bispecific antibody)
heavy 1: QVQLQQWGAGLLKPSETLSLTCAVYGGSFSGYYWSWIRQSPEKGLEWIGEINHGGYVTYNPSLESRVTISVDTSKNQFSLKLSSVTAADTAVYYCARDYGPGNYDWYFDLWGRGTLVTVSSASTKGPSVFPLAPSSKSTSGGTAALGCLVKDYFPEPVTVSWNSGALTSGVHTFPAVLQSSGLYSLSSVVTVPSSSLGTQTYICNVNHKPSNTKVDKKVEPKSCDKTHTCPPCPAPEAAGGPSVFLFPPKPKDTLMISRTPEVTCVVVDVSHEDPEVKFNWYVDGVEVHNAKTKPREEQYNSTYRVVSVLTVLHQDWLNGKEYKCKVSNKALGAPIEKTISKAKGQPREPQVCTLPPSRDELTKNQVSLSCAVKGFYPSDIAVEWESNGQPENNYKTTPPVLDSDGSFFLVSKLTVDKSRWQQGNVFSCSVMHEALHNHYTQKSLSLSPGGGGGSGGGGSGGGGSGGGGSEVKLVESGGGLVQPGGSLRLSCATSGFTFTDYYMNWVRQPPGKALEWLGFIGNKANGYTTEYSASVKGRFTISRDKSQSILYLQMNTLRAEDSATYYCTRDRGLRFYFDYWGQGTTLTVSS
heavy 2: not shown
light: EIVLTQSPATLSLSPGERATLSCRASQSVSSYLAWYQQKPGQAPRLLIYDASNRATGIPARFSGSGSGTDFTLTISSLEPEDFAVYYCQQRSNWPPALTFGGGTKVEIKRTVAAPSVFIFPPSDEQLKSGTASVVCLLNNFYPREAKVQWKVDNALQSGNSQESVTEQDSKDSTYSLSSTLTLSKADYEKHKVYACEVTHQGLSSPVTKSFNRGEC
notes: also called 4-1BB (20H4.9)×CEA (A5B7P) 2+1; C-terminal VH/VL fusion of the A5B7P clone
B5: 2+1 4-1BB (20H4.9)/CEA(T84.66-LCHA) human IgG1 PGLALA, (G4S)4 hole-VH (bispecific antibody)
heavy 1: QVQLQQWGAGLLKPSETLSLTCAVYGGSFSGYYWSWIRQSPEKGLEWIGEINHGGYVTYNPSLESRVTISVDTSKNQFSLKLSSVTAADTAVYYCARDYGPGNYDWYFDLWGRGTLVTVSSASTKGPSVFPLAPSSKSTSGGTAALGCLVKDYFPEPVTVSWNSGALTSGVHTFPAVLQSSGLYSLSSVVTVPSSSLGTQTYICNVNHKPSNTKVDKKVEPKSCDKTHTCPPCPAPEAAGGPSVFLFPPKPKDTLMISRTPEVTCVVVDVSHEDPEVKFNWYVDGVEVHNAKTKPREEQYNSTYRVVSVLTVLHQDWLNGKEYKCKVSNKALGAPIEKTISKAKGQPREPQVCTLPPSRDELTKNQVSLSCAVKGFYPSDIAVEWESNGQPENNYKTTPPVLDSDGSFFLVSKLTVDKSRWQQGNVFSCSVMHEALHNHYTQKSLSLSPGGGGGSGGGGSGGGGSGGGGSQVQLVQSGAEVKKPGSSVKVSCKASGFNIKDTYMHWVRQAPGQGLEWMGRIDPANGNSKYVPKFQGRVTITADTSTSTAYMELSSLRSEDTAVYYCAPFGYYVSDYAMAYWGQGTLVTVSS
heavy 2: not shown
light: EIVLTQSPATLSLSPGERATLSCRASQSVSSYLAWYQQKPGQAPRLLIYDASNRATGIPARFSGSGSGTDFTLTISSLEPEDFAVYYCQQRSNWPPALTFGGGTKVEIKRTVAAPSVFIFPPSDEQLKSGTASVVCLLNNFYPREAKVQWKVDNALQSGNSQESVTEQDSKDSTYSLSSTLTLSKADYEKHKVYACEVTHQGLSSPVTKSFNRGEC
notes: also called 4-1BB (20H4.9)×CEA (T84.66-LCHA) 2+1

What was measured:
[1] = target: T1, human 4-1BB on cells (activated human T cells; HeLa-hu4-1BB-NFκB-luc clone 26; Jurkat-hu4-1BB-NFκB-luc2) (human, UniProt Q07011 24-255); test: cell-based or functional assay
[2] = target: T1, human 4-1BB on cells (activated human T …); test: flow cytometry on activated human CD8+ T cells, PE anti-human Fc secondary
[3] = target: T2, human FAP on cells (WM-266-4; NIH/3T3-huFAP clone 19) (human, UniProt Q12884 1-760); test: flow cytometry on NIH/3T3-huFAP clone 19 cells
T2 construct: transfected in NIH/3T3-huFAP clone 19

[4] = target: T1, human 4-1BB on cells (activated human T …); test: cell-based or functional assay; remark: listed apart in the source
[5] = target: T3, hu4-1BB-SNAP fusion on Hek293 EBNA cells (human, UniProt Q07011 24-255, labeled with the FRET donor Terbium); test: TagLite FRET competition on hu4-1BB-SNAP cells; competitor 0.6 nM d2-labelled 20H4.9 IgG; 4 h
T3 construct: also called hu 4-1BB (TagLite); not shown: SNAP tag

[6] = target: T1, human 4-1BB on cells (activated human T …); test: flow cytometry on activated human CD4+ T cells, PE anti-human Fc secondary
[7] = target: T2, human FAP on cells (WM-266-4; …); test: flow cytometry on WM-266-4 cells
[8] = target: T3, hu4-1BB-SNAP fusion on Hek293 EBNA cells; test: TagLite FRET competition on hu4-1BB-SNAP cells; competitor 0.6 nM d2-labelled 20H4.9 IgG; 4 h; remark: listed apart in the source
[9] = target: T1, human 4-1BB on cells (activated human T …); test: cell-based or functional assay; remark: listed apart in the source
[10] = target: T1, human 4-1BB on cells (activated human T …); test: flow cytometry on Jurkat-hu4-1BB-NFκB-luc2 cells

Binder | EC50 of human PBMC activation curves, % CD25+ CD4 (with NIH/3T3-huFAP cells and anti-CD3) [1] [nM] | EC50 of human PBMC activation curves, % CD25+ CD8 (with NIH/3T3-huFAP cells and anti-CD3) [1] [nM] | EC50 of human PBMC activation curves, % proliferating CD4 (with NIH/3T3-huFAP cells and anti-CD3) [1] [nM] | EC50 of human PBMC activation curves, % proliferating CD8 (with NIH/3T3-huFAP cells and anti-CD3) [1] [nM] | EC50 [2] [nM] | EC50 [3] [nM] | EC50 of activation of the NFκB signaling pathway (luciferase, HeLa-hu4-1BB-NFκB-luc), no FAP+ cells [4] [nM] | EC50 of activation of the NFκB signaling pathway (luciferase, HeLa-hu4-1BB-NFκB-luc), with 3T3-huFAP cells [4] [nM] | EC50 of activation of the NFκB signaling pathway (luciferase, HeLa-hu4-1BB-NFκB-luc), with WM-266-4 cells [4] [nM] | EC50 [5] [nM] | EC50 interval [5] [nM] | EC50 [6] [nM] | EC50 [7] [nM] | EC50 [8] [nM] | EC50 interval [8] [nM] | EC50 of Jurkat-hu4-1BB-NFκB-luc2 reporter cell line activation curves in the presence of CEA-expressing MKN45 tumor cells [9] [nM] | EC50 [10] [nM]
B1 | 0.005 | 0.02 | 0.004 | 0.001 | 0.1 | 1.7 | 0.73 | 0.07 | 0.08 | 1.6 | 1.2 to 2.3 | 0.1 | 0.7 | – | – | – | –
B2 | 0.006 | 0.009 | 0.003 | 0.002 | 0.1 | 2 | 0.13 | 0.04 | 0.05 | – | – | 0.1 | 1.6 | 0.5 | 0.3 to 0.7 | – | –
B3 | – | – | – | – | – | – | – | – | – | – | – | – | – | – | – | 0.09 | 0.06
B4 | – | – | – | – | – | – | – | – | – | – | – | – | – | – | – | 0.16 | 0.06
B5 | – | – | – | – | – | – | – | – | – | – | – | – | – | – | – | 0.19 | 0.07

Source: patent US20230045262A1 (Hoffmann-La Roche, published 2023)
